Measured values from PMC6884138 (ACS synthetic biology, 2019).

Key:
SEC = biological target: the molecule itself; experiment: SEC
crystal structure = biological target: the molecule itself; experiment: crystal structure

B1: BMC-H^2 (synthetic tandem-domain BMC shell protein), released from 6xHis-SUMO-BMC-H^2 by ULP protease (other, Haliangium ochraceum)
chain: MADALGMIEVRGFVGMVEAADAMVKAAKVELIGYEKTGGGYVTAVVRGDVAAVKAATEAGQRAAERVGEVVAVHVIPRPHVNVDAALPLGRTPGMDKSALDAPVVADAWEEDTESADALGMIEVRGFVGMVEAADAMVKAAKVELIGYEKTGGGYVTAVVRGDVAAVKAATEAGQRAAERVGEVVAVHVIPRPHVNVDAALPLGRTPGMDKSA
stoichiometry N (SEC): 3 | stoichiometry N (crystal structure): 90
